# Measurements taken from patent US9932382B2, “Kv2.1 channel-derived peptides and methods of use” (University of Pittsburgh—Of the Commonwealth System of …, priority 2014, dated 2018).
# Legend:
# [1] = test system: Kv2.1 K^+ currents; experiment: Whole-cell patch clamp K+ currents in cortical neurons after DTDP; type: cell-based, rat
# Procedure: For electrophysiological experiments, mixed cortical neuronal/glial cultures were prepared from embryonic day 16 (E16) Sprague-Dawley rats (Charles River Laboratories, Wilmington, Mass., USA). Donor rats were euthanized by gradual CO2 exposure. Cortices were dissociated with trypsin, and the resultant cell suspension, adjusted to 670,000 cells per well, was plated on glass coverslips in 6-well plates as described previously (Hartnett et al., J Neurochem 68, 1836-1845, 1997). Non-neuronal cell proliferation was inhibited after two weeks in culture with 1-2 μM cytosine arabinoside, and cultures utilized at three to four weeks in vitro. For neuronal transfection, cells were treated for five hours in serum-free medium with 2 μL LIPOFECTAMINE™ 2000 (Invitrogen, Carlsbad, Calif.), 50 μL Optimem (GIBCO, Grand Island, N.Y.), and 1.5 μg DNA per well. […]
# Current recordings were performed on eGFP-positive co-transfected neurons or CHO cells using the whole-cell patch clamp configuration technique as described previously (McLaughlin et al., J Neurosci 21, 3303-3311, 2001). […] To determine current density values, steady-state current amplitudes were measured 180 msec after the initiation of the +10 mV step and normalized to cell capacitance. […]
# [2] = test system: neurons; experiment: Current clamp / dynamic clamp electrical properties of neurons; type: cell-based
# Procedure: For electrophysiological experiments, mixed cortical neuronal/glial cultures were prepared from embryonic day 16 (E16) Sprague-Dawley rats (Charles River Laboratories, Wilmington, Mass., USA). Donor rats were euthanized by gradual CO2 exposure. Cortices were dissociated with trypsin, and the resultant cell suspension, adjusted to 670,000 cells per well, was plated on glass coverslips in 6-well plates as described previously (Hartnett et al., J Neurochem 68, 1836-1845, 1997). Non-neuronal cell proliferation was inhibited after two weeks in culture with 1-2 μM cytosine arabinoside, and cultures utilized at three to four weeks in vitro. For neuronal transfection, cells were treated for five hours in serum-free medium with 2 μL LIPOFECTAMINE™ 2000 (Invitrogen, Carlsbad, Calif.), 50 μL Optimem (GIBCO, Grand Island, N.Y.), and 1.5 μg DNA per well. For CHO cell transfections, cells were plated on coverslips in 24-well plates at a density of 5.6×10^4 cells per well for electrophysiological measurements or in 100 mm dishes at a density of 1.7×10^6 cells per dish for biochemical studies. Cells were treated for 3-4 hours in serum-free medium with a total of 1.2 μL LIPOFECTAMINE™ and 0.28 μg DNA per well for electrophysiology, or 55.1 μL LIPOFECTAMINE™ and 7.33 μg DNA per dish for biochemistry. Following transfection, cells were maintained in F12 medium containing fetal bovine serum at 37° C., 5% CO2 for 24 hours prior to experimentation.
# Current recordings were performed on eGFP-positive co-transfected neurons or CHO cells using the whole-cell patch clamp configuration technique as described previously (McLaughlin et al., J Neurosci 21, 3303-3311, 2001). The intracellular (electrode) solution contained (in mM): 100 K-gluconate, 11 EGTA, 10 KCl, 1 MgCl2, 1 CaCl2×2H2O, 10 HEPES; pH adjusted to 7.2 with concentrated KOH; 2.2 ATP and 0.33 GTP were added and the osmolarity was adjusted to 280 mOsm with sucrose. The extracellular solution contained (in mM): 115 NaCl, 2.5 KCl, 2.0 MgCl2, 10 HEPES, 10 D-glucose; 0.25 μM tetrodotoxin; pH adjusted to 7.2. Measurements were obtained under whole-cell voltage clamp with an Axopatch-1D amplifier and pClamp software (Molecular Devices, Sunnyvale, Calif.), using 2-3 MΩ recording electrodes. Electrodes were pulled from 1.5 mm borosilicate glass (Warner Instruments, Hamden, Conn.) with a model P-97 mechanical pipette puller (Sutter Instruments, Novato, Calif.). Series resistance was partially compensated (80%) in all cases. Currents were filtered at 2 kHz and digitized at 10 kHz with a Digidata 1440A Digitizer (Molecular Devices). K^+ currents were evoked with incremental 10 mV voltage steps to +80 mV from a holding potential of −80 mV. To determine current density values, steady-state current amplitudes were measured 180 msec after the initiation of the +10 mV step and normalized to cell capacitance. For current clamp experiments, the intracellular (electrode) solution contained (in mM): 94 K-gluconate, 30 KCl, 10 phosphocreatine di-tris salt, 10 HEPES, 0.2 EGTA, 4 ATP, 0.3 GTP; pH adjusted to 7.3 with concentrated KOH. […] By repeatedly adjusting the scaling factor k, an automated binary search algorithm determined threshold synaptic conductance (thresh-gsyn), the conductance required to reach firing threshold (Kullmann et al., J Neurophysiol 91, 542-54, 2004).
# It was next evaluated whether C1a441-522 was sufficient to protect neurons against oxidative injury. […]
Molecule,"effect on DTDP-induced enhancement of K+ current densities ([1]; cortical neurons transfected with C1a-expressing plasmid, 30 μM DTDP 10 min, +10 mV step)","effect on non-apoptotic, basal delayed-rectifier K+ currents ([1]; cortical neurons, without DTDP)",overall effect of expression on neurons [2],"firing frequency as a function of depolarizing current versus vector-expressing neurons ([2]; 1 sec depolarizing current steps, 15-120 pA)",input resistance versus vector-expressing neurons ([2]; current clamp),resting membrane potential versus vector-expressing neurons ([2]; current clamp),threshold synaptic conductance versus vector-expressing neurons ([2]; dynamic clamp)
"C1a: rat Kv2.1 C1a peptide, residues 411-522 of SEQ ID NO: 3, expressed from a plasmid (protein, listed as Rattus norvegicus) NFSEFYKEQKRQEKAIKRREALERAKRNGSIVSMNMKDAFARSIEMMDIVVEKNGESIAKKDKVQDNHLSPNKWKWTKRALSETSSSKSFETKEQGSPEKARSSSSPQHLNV",failed to exhibit the enhanced K^+ current densities normally elicited by DTDP,had no effect,,,,,
"C1a441-522: distal segment of C1a, residues 441-522 of rat Kv2.1 (protein, UniProt P15387 441-522, looked up, fragment) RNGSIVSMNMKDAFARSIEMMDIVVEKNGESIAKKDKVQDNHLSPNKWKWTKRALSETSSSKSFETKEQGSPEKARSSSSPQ",,,relatively innocuous to neurons,small but significant increase,no differences,no differences,no differences
